Several values for one entry are separate records, joined by “and”; a condition that tells them apart may be missing. Equal values may be shown once. Read-outs that look alike come from different tables or passages of the source.
Key:
[1] = target: OrgB, C-terminal His-tag (co-expressed with spaO) (Salmonella Typhimurium strain SL1344); experiment: native MS
[2] = target: SpaO-2SpaOC heterotrimer (Salmonella Typhimurium strain SL1344) (UniProt P40699); experiment: native MS
[3] = target: SpaO-2SpaOC heterotrimer (Salmonella Typhimurium strain SL1344) (UniProt P40699); experiment: native MS; remark: listed apart in the source
[4] = target: InvC, full-length, C-terminal Strep-tag (Salmonella Typhimurium strain SL1344) (UniProt P0A1B9); experiment: native MS
[5] = target: OrgB (co-expressed with Strep-tagged InvC or InvC fragments) (Salmonella Typhimurium strain SL1344); experiment: native MS
[6] = target: T1, SpaO, full-length, C-terminal Strep-tag (Salmonella Typhimurium strain SL1344, UniProt P40699 1-303); experiment: native MS
T1 sequence (looked up): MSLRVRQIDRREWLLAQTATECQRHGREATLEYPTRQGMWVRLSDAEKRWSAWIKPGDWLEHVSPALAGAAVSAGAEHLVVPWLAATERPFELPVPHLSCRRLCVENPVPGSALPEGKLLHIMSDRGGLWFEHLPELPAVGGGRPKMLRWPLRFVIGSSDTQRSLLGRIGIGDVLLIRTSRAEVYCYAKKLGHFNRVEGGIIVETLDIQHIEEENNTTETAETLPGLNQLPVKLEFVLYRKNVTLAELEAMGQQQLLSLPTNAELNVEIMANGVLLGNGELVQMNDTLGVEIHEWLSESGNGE

[7] = target: T2, SpaO N-terminal domain (SpaO 1-145) (Salmonella Typhimurium strain SL1344, UniProt P40699 1-145); experiment: ITC
T2 sequence (looked up): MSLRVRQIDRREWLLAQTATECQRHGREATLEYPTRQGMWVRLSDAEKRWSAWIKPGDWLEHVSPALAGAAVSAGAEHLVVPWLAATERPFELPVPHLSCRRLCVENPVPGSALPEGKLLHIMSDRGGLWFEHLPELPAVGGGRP

[8] = target: T2, SpaO N-terminal domain (SpaO 1-145); experiment: SEC-MALS
[9] = target: T2, SpaO N-terminal domain (SpaO 1-145); experiment: native MS
[10] = target: T3, SpaO SPOA1-SPOA2 construct (SpaO 140-297) (Salmonella Typhimurium strain SL1344, UniProt P40699 140-297); experiment: native MS
T3 sequence (looked up): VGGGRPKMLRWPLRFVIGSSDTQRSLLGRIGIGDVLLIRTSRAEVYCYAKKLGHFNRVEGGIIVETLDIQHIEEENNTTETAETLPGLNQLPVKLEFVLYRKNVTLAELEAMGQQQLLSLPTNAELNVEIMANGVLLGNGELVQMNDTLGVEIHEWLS

[11] = target: the molecule itself; experiment: native MS
[12] = target: T4, SpaO in the SpaO/SpaOC/OrgB/InvC complex (spaO+orgB+invC co-expression) (Salmonella Typhimurium strain SL1344, UniProt P40699 1-303); experiment: native MS
T4 sequence (looked up): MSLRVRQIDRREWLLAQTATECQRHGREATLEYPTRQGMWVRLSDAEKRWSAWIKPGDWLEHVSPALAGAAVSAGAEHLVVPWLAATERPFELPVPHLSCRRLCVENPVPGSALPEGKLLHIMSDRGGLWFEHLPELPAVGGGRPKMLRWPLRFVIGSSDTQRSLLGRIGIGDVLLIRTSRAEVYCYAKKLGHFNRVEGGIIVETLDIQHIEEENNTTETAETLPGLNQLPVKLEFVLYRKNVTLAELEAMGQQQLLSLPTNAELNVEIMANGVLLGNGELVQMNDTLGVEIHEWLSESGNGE

Sequence of InvC, full-length, C-terminal Strep-tag (Salmonella Typhimurium strain SL1344) (P0A1B9 whole entry, the tested form may be a part): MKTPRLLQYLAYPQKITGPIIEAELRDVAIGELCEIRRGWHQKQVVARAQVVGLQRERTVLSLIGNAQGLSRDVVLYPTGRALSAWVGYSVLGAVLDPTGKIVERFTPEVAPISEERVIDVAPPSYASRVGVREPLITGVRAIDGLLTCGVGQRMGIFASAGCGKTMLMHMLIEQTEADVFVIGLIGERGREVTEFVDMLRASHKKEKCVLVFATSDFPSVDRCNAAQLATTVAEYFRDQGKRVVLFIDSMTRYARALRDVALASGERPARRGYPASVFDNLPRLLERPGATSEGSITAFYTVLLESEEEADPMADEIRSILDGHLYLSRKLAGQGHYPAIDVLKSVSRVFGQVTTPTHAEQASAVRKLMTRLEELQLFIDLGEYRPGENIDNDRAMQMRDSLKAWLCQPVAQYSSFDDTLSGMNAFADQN

Q: “OrgB, C-terminal His-tag (co-expressed with spaO) (natural protein)” was tested. Which stoichiometry N [1] did it give?
A: The stoichiometry N was 2.

Q: “SpaO-2SpaOC heterotrimer (from UniProt P40699 1-303; P40699 203-303) (complex)” was tested. Which stoichiometry N [2] did it give?
A: The stoichiometry N was 2.

Q: And the stoichiometry N [3]?
A: The stoichiometry N was 2.

Q: With “OrgB (co-expressed with Strep-tagged InvC or InvC fragments) (natural protein)” as the molecule, how does the stoichiometry N (OrgB per InvC) [4] read?
A: The stoichiometry N (OrgB per InvC) was 2.

Q: And the stoichiometry N [5]?
A: The stoichiometry N was 2.

B1: SpaOC, short product of the spaO gene, C-terminal Strep-tag (natural protein, Salmonella Typhimurium strain SL1344, UniProt P40699 203-303, looked up)
chain: METLDIQHIEEENNTTETAETLPGLNQLPVKLEFVLYRKNVTLAELEAMGQQQLLSLPTNAELNVEIMANGVLLGNGELVQMNDTLGVEIHEWLSESGNGE
Q: With B1 as the molecule, how does the “stoichiometry N” value [6] read?
A: Its value is 2 SpaOC per SpaO.

Q: And the Kd [7]?
A: Its Kd is 1040 ± 210 nM.

Q: And the “stoichiometry N” value [8]?
A: The value was 2 SpaOC per SpaO(1-145).

Q: And the “stoichiometry N” value [9]?
A: The value was 4 SpaOC per SpaO(1-145).

Q: What about the “stoichiometry N” value [10] of the same molecule?
A: The value was 2 SpaOC per SpaO(140-297).

Q: What about the “stoichiometry N” value [11] of the same molecule?
A: The value was 2 and 4.

B2: SpaOC in the SpaO/SpaOC/OrgB/InvC complex (spaO+orgB+invC co-expression) (natural protein, Salmonella Typhimurium strain SL1344, UniProt P40699 203-303, looked up)
chain: METLDIQHIEEENNTTETAETLPGLNQLPVKLEFVLYRKNVTLAELEAMGQQQLLSLPTNAELNVEIMANGVLLGNGELVQMNDTLGVEIHEWLSESGNGE
Q: With B2 as the molecule, how does the “stoichiometry N” value [12] read?
A: The value was 2 SpaOC per SpaO.
